Patent US20230002478A1

Assays:
[1] = molecular target: SARS-CoV-2 S1-Fc (South Africa 178-08) (SARS-CoV-2), P0DTC2; assay: SPR; details: remark: other sources report otherwise
[2] = molecular target: SARS-CoV-2 S Trimer (SARS-CoV-2), P0DTC2; assay: SPR; details: remark: other sources report otherwise

B1: 6-63 (Fc fusion)
chain: EVQLVESGGGLVQPGGSLRLSCAASGQTFNMGWFRQAPGKEREFVAAIGSGGSTSYADSVKGRFTISADNSKNTAYLQMNSLKPEDTAVYYCWRLGNDYFDYWGQGTLVTVSS
**Q.** Which results are given for B1?
**A.** Kd [1]: 26.8 nM; Kd [2]: 0.68 nM
